Assay [1] concerns the target Notch1 (as used for the SPR of Example 1). Briefly: SPR.
The target in assay [2] is T1, hNotch 1 (EGF6-EGF13) (human, UniProt P46531 218-526, biotinylated (site not stated)).
T1 construct: domain: EGF6-EGF13; Immobilised on the SPR chip through biotin; also called biotinylated Notch1
Briefly: SPR, biotinylated Notch on chip, 1:1 equilibrium binding model. The method, then:
(§1) 100. Next, the binding affinity of each individual variant was determined by surface plasmon resonance. Biotinylated Notch1, Notch2, or Notch3 proteins containing the domains indicated above were immobilized on a surface plasmon resonance sensor chip. Increasing concentrations of WT DLL4 or DLL4.v3 were then flowed over the chip and dissociation constants were determined by fitting the data to a 1:1 equilibrium binding model. As shown in FIG. 4 and Table 3, the binding affinity of DLL4.v3 was at least 3 orders of magnitude stronger than wildtype.
(In general: In SPR one partner is held on a chip, and binding of the other changes the refractive index at the surface.)

Assay [3] has as its target T2, hNotch 3 (EGF5-EGF12) (human, UniProt Q9UM47 197-505, biotinylated (site not stated)).
T2 construct: domain: EGF5-EGF12; Immobilised on the SPR chip through biotin; also called biotinylated Notch3
T2 sequence (looked up): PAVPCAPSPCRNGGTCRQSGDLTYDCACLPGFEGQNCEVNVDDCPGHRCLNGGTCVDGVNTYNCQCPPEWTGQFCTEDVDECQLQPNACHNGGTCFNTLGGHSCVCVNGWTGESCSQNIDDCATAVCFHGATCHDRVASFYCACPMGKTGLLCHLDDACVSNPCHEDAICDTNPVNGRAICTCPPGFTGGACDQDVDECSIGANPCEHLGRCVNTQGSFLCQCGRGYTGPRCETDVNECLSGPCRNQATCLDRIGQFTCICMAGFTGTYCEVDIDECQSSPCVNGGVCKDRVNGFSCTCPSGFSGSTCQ
Described as above. How it is done: as §1

Assay [4] deals with T3, hNotch 2 (EGF6-EGF13) (human, UniProt Q04721 221-530, biotinylated (site not stated)).
T3 construct: domain: EGF6-EGF13; Immobilised on the SPR chip through biotin; also called biotinylated Notch2
T3 sequence (looked up): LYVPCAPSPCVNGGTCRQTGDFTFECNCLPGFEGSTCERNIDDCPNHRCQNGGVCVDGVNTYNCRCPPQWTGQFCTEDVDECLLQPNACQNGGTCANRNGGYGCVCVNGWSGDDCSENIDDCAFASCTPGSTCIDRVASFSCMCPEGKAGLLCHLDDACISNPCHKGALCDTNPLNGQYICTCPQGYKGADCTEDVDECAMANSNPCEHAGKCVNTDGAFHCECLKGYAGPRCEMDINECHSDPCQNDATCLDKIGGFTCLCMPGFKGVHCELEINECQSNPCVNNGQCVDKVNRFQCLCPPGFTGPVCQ
The description is as above. How it is done:
as §1

Assay [5] has as its target T1, hNotch 1 (EGF6-EGF13). Briefly: SPR. The method, then:
as §1

Assay [6] has as its target T2, hNotch 3 (EGF5-EGF12). In words: SPR. The method, then: as §1
Assay [7] has as its target T3, hNotch 2 (EGF6-EGF13). Briefly: SPR. How it is done: as §1

Consider “wild type rat DLL4 (from UniProt D3ZHH1 27-401) (ligand)”, for which the Kd – broadly, the free concentration of one partner at which half of the binding sites on the other are occupied at equilibrium, for simple one-to-one binding – in assay [1] was determined as 12.7 µM.

B1: WT hDLL4 (N-EGF3) (ligand)
chain: SGVFQLQLQEFINERGVLASGRPCEPGCRTFFRVCLKHFQAVVSPGPCTFGTVSTPVLGTNSFAVRDDSSGGGRNPLQLPFNFTWPGTFSLIIEAWHAPGDDLRPEALPPDALISKIAIQGSLAVGQNWLLDEQTSTLTRLRYSYRVICSDNYYGDNCSRLCKKRNDHFGHYVCQPDGNLSCLPGWTGEYCQQPICLSGCHEQNGYCSKPAECLCRPGWQGRLCNECIPHNGCRHGTCSTPWQCTCDEGWGGLFCDQDLNYCTHHSPCKNGATCSNSGQRSYTCTCRPGYTGVDCE
notes: also called WT DLL4; wildtype
As for B1, the dissociation constant (Kd) was 17.9 µM in assay [2], 22 µM in assay [3] and 35.7 µM in assay [4].

B2: 3a.5_E12 (N-EGF3) (ligand)
chain: SSVFQLQLQEFINERGVLASGRPCEPGCRTFFRVCLKHFQAVVSPGPCTFGTVSTPVLGTNSFAVRDDSSGGGRNPLQLPLNFTWPGTFSLIIEAWHAPGDDLRPEALPPDALISKFAIQGSLAVGQNWLLDEQTSTLTRLRYSYRVICSDNYYGDNCSRLCKKRNDYFGHYVCQPDGNPSCLPGWTGEYCQQPICLSGCHEQNGYCSKPAECLCRPGWQGRLCNECIPHPGCRHGTCSTPWQCLCDEGWGGLYCDQDLNYCTHHSPCKNGATCRNSGPRSYTCTCRPGYTGVDCE
notes: also called DLL4.v3; N3a.5_E12
Turning to B2, the results for the dissociation constant (Kd) in assay [2], in assay [3] and in assay [4] were 0.02 µM, 0.0273 µM and 0.0314 µM, respectively. Further, the “binding affinity relative to wildtype” value in assay [5] was around 1000 fold; in assay [6], around 1000 fold; in assay [7] it was at least 1000 fold.

(Values after patent US20220241335A1 (H LEE MOFFITT CANCER CENTER AND RESEARCH INST5ITUTE, published 2022).)
